Reference: US20260028417A1 (SICHUAN KELUN BIOTECH BIOPHARMACEUTICAL, published 2026)

T1: monkey HER3 protein (extracellular sequence with six histidines at the C-terminal) (monkey)
T1 construct: Made in HEK293 cells; also called Monkey HER3-His
T1 chain: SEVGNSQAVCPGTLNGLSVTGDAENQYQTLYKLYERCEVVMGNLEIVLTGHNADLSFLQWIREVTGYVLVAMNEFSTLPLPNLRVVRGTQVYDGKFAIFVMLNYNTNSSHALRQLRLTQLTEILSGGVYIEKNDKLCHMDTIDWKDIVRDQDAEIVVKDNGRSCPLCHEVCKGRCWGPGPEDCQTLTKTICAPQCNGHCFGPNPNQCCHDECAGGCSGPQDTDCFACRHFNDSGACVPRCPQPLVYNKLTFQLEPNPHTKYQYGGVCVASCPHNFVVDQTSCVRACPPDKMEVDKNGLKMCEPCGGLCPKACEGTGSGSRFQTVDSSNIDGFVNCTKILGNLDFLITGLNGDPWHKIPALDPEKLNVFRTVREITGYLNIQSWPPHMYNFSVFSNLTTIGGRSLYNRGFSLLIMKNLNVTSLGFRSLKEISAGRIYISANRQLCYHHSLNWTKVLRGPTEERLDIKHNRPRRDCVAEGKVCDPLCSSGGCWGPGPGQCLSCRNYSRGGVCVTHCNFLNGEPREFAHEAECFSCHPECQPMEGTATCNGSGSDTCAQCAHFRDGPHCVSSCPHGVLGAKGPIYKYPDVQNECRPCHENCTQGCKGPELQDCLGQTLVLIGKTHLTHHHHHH


Assays:
human HER3 on cells [1] = target: T2, human HER3 on cells (human, UniProt P21860 20-1342); test: cell-based or functional assay
rat HER3 protein [2] = target: T3, rat HER3 protein (rat, UniProt Q62799 20-643); test: ELISA, coated rat HER3-His
T3 construct: whole entry named; also called Rat HER3-His; rat protein
T3 sequence (Q62799 20-643): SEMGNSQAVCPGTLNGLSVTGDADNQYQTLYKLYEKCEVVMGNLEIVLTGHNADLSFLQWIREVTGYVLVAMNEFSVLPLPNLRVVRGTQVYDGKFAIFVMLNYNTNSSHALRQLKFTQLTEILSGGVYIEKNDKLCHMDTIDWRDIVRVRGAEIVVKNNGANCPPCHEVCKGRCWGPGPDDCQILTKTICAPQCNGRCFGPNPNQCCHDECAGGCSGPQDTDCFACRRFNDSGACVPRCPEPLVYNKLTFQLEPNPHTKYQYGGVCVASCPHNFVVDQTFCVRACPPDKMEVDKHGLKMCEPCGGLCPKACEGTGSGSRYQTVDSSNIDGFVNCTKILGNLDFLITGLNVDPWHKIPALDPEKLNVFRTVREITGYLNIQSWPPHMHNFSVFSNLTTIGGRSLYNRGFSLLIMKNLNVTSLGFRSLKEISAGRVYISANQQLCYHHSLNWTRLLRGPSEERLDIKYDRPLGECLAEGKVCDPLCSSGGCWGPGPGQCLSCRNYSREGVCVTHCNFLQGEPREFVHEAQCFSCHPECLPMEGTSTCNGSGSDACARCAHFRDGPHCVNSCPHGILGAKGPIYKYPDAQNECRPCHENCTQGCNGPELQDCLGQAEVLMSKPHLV
Procedure: (§1) The plate was washed 5 times with PBST (0.2% Tween-20), and dried, then 100 μl of TMB (InnoReagents) chromogenic substrate was added to each well, reacted at room temperature for 3-5 minutes, then 50 μl of 2N H₂SO₄ was added to each well to stop the chromogenic reaction, and the absorbance value at OD450 nm was read with a microplate reader. The raw data were imported into GraphPad Prism 6 software for nonlinear curve fitting, and EC50 values were calculated.

[3] = target: T4, human HER3 protein (extracellular sequence with six histidines at the C-terminal) (human, UniProt P21860 20-643); test: ELISA, coated human HER3-His
T4 construct: extracellular domain; Made in HEK293 cells; also called Human HER3-His
Procedure: as §1

human HER3 on cells [4] = target: T2, human HER3 on cells; test: flow cytometry on T47D cells
Procedure: (§2) Data processing: the Median PE values were exported, then imported into GraphPad Prism 6 software, and EC50 values were calculated.

[5] = target: T1, monkey HER3 protein (extracellular …); test: ELISA, coated monkey HER3-His
Procedure: as §1

human HER3 on cells [6] = target: T2, human HER3 on cells; test: flow cytometry on NCI-N87 cells
Procedure: as §2

human HER3 on cells [7] = target: T2, human HER3 on cells; test: flow cytometry on NCI-H358 cells
Procedure: as §2

[8] = target: T4, human HER3 protein (extracellular …); test: BLI (ForteBio), antibody captured on Protein A sensor, human HER3-His in solution, 1:1 global fit
Procedure: (§3) The measured results were entered into Data Analysis 11.0 software, by using 1:1 mode, and global fitting; the results were analyzed to obtain the association rate, dissociation rate and affinity constant.

[9] = target: T1, monkey HER3 protein (extracellular …); test: BLI (ForteBio), antibody captured on Protein A sensor, monkey HER3-His in solution, 1:1 global fit
Procedure: as §3

human HER3 on cells [10] = target: T2, human HER3 on cells; test: competition flow cytometry on adherent cells (cell line not named in paragraph 175); competitor: 100H7D3-hIgG-Bio, final 200 ng/ml; PE streptavidin
Text: (§4) Data processing: the Median PE values were exported, and then imported into GraphPad Prism 6 software for nonlinear curve fitting (4-parameter).

[11] = target: T4, human HER3 protein (extracellular …); test: ELISA, coated human HER3 protein, chimeric antibody
Procedure: (§5) The plate was washed 5 times with PBST (0.2% Tween-20). After the plate was dried, 100 μl of TMB (CoWin Biotech) chromogenic substrate was added to each well, reacted at room temperature for 3-5 minutes; 50 μl of 2N H₂SO₄ was added to each well to stop the chromogenic reaction, and absorbance value at OD450 nm was read with a microplate reader. The raw data were imported into GraphPad Prism 6 software for nonlinear curve fitting, and the EC50 values of each antibody binding to human HER3 and monkey HER3 were calculated.

[12] = target: T1, monkey HER3 protein (extracellular …); test: ELISA, coated monkey HER3 protein, chimeric antibody
Procedure: as §5

human HER3 on cells [13] = target: T2, human HER3 on cells; test: cell-based or functional assay; remark: listed apart in the source
human HER3 on cells [14] = target: T2, human HER3 on cells; test: cell-based or functional assay; remark: listed apart in the source
human HER3 on cells [15] = target: T2, human HER3 on cells; test: cell-based or functional assay; remark: listed apart in the source
human HER3 on cells [16] = target: T2, human HER3 on cells; test: competition flow cytometry on adherent cells (cell line not named in paragraph 175); competitor: 22B6D2-hIgG-Bio, final 25 ng/ml; PE streptavidin
Text: as §4

[17] = target: T4, human HER3 protein (extracellular …); test: competition ELISA on coated human HER3 protein (1 µg/ml); competitor: biotin-labelled 22B6D2-hIgG (22B6D2-hIgG-Bio, diluted to 3 ng/mL); streptavidin-HRP, OD450
Procedure: (§6) The plate was washed with PBST (0.2% Tween-20) for 3 times, and dried, 100 μl of diluted Peroxidase-conjugated Streptavidin secondary antibody (Proteintech) was added to each well, and incubated at room temperature for 1 hour; the plate was washed 5 times with PBST (0.2% Tween-20), and dried, 100 μl of TMB (InnoReagents) chromogenic substrate was added to each well, reacted at room temperature for 3-5 minutes; 50 μl of 2N H₂SO₄ was added to each well to stop the chromogenic reaction, and OD450 nm absorbance value was read with a microplate reader. The raw data were imported into GraphPad Prism 6 software for nonlinear curve fitting (4-parameter).

rat HER3 protein [18] = target: T3, rat HER3 protein; test: ELISA, rat HER3 protein coated at 1 µg/ml, anti-human IgG-HRP, OD450
Procedure: as §1

[19] = target: T4, human HER3 protein (extracellular …); test: competition ELISA on coated human HER3 protein (1 µg/ml); competitor: biotin-labelled U1-59 (U1-59-Bio, diluted to 50 ng/ml); streptavidin-HRP, OD450
Procedure: as §6

[20] = target: T4, human HER3 protein (extracellular …); test: competition ELISA on coated human HER3 protein (1 µg/ml); competitor: biotin-labelled 47A3E3-hIgG (47A3E3-hIgG-Bio, diluted to 15 ng/mL); streptavidin-HRP, OD450
Procedure: as §6

| ADCC activity, EC50 (Jurkat-NFAT/luciferase-CD16a reporter with CHO-S-hHER3 target cells) (human HER3 on cells [1]) [µg/mL] | EC50 [3] [µg/mL] | EC50 (human HER3 on cells [4]) [µg/mL] | EC50 [5] [µg/mL] | EC50 (human HER3 on cells [6]) [µg/mL] | EC50 (human HER3 on cells [7]) [µg/mL] | Kd [8] [nM] | koff [8] [s⁻¹] | kon [8] [M⁻¹ s⁻¹] | Kd [9] [nM] | koff [9] [s⁻¹] | kon [9] [M⁻¹ s⁻¹] | EC50 [11] [µg/mL] | EC50 [12] [µg/mL] | Binder | further results |
| --- | --- | --- | --- | --- | --- | --- | --- | --- | --- | --- | --- | --- | --- | --- | --- |
| 0.0257 | 0.00849 | 0.203 | 0.0131 | 0.218 | 0.29 | 7.47 | 0.00226 | 302000 | 5.44 | 0.000926 | 170000 |  |  | 100H7D3-hIgG (anti-human HER3 fully human antibody) (antibody, V domains shown, Human IgG1/kappa, expressed in CHO-S cells; also called 100H7D3-hIgG-Bio (biotin-labelled)) VH: EVQLVESGGGVVLPGRSLRLSCAASGFTFSRNAMHWVRQAPGKGLEWVAVIWHDGSNKYYGDSVKGRFTISRDNSKNTLYLQMDSLTAEDTAVYYCARDRGASDFRGQGTLVTVSS VL: DIQMTQSPSTLSASVGDRVTITCRASQSINNWLAWYQQKPEKAPKLLIYKASSLESGVPSRFSGSGSGTEFTLTISSLQPDDFATYYCQQYNSYSLTFGGGTKVEIKR | EC50 (rat HER3 protein [2]): 0.00937 µg/mL; IC50 (read off the curve) (human HER3 on cells [10]): ~0.4 µg/mL |
|  |  |  |  |  |  |  |  |  |  |  |  | 0.0131 | 0.0187 | 100H7D3 (anti-human HER3 chimeric antibody) (antibody, V domains shown) VH: EVQLVESGGGVVLPGRSLRLSCAASGFTFSRNAMHWVRQAPGKGLEWVAVIWHDGSNKYYGDSVKGRFTISRDNSKNTLYLQMDSLTAEDTAVYYCARDRGASDFRGQGTLVTVSS VL: DIQMTQSPSTLSASVGDRVTITCRASQSINNWLAWYQQKPEKAPKLLIYKASSLESGVPSRFSGSGSGTEFTLTISSLQPDDFATYYCQQYNSYSLTFGGGTKVEIK |  |
|  |  |  |  |  |  |  |  |  |  |  |  | 0.0121 | 0.0065 | 44A4A11 (anti-human HER3 chimeric antibody) (antibody, V domains shown) VH: EVQLLESGGGLVQPGGSLRLSCAASGFTFSSYAMNWVRQAPGKGLEWVSSISDSGGSTYYADSVKGRFTISRDNSKNTLYLQMNSLRAEDTAVYYCAKDGGISMVRGVIIEEGYFDLWGRGTLVTSPQ VL: DIQLTQSPSFLSASVGDRVTITCRASQGISSYLAWYQQKPGKAPKLLIYVVSTLQSGVPSRFSGSGSGTEFTLTISSLQPEDFATYYCHQLNSYPLTFGGGTKVEIK |  |
| 0.00973 | 0.00407 | 0.0383 | 0.00363 | 0.0446 | 0.0857 | 11.1 | 0.00397 | 357000 | 49.6 | 0.00825 | 166000 |  |  | 22B6D2-hIgG (anti-human HER3 fully human antibody) (antibody, V domains shown, Human IgG1/kappa, expressed in CHO-S cells; also called 22B6D2-hIgG-Bio (biotin-labelled)) VH: EVHLVESGGGVVQPGRSLRLSCATSGFTFRSYGMHWVRQAPGKGLEWVAVIWYDGSNKYYADSVKGRFTISRDISKNTLYLQMNSLTAEDTAVYYCARYYYDSNGYYDAFDIWGQGTMVTVSS VL: DIQLTQSPSFLSASVGDRVTITCRASQGISNYLAWYQQKPGKAPKLLIFAASTLQSGVPSRFSGSGSGAEFTLTISSLEPEDFATYYCQQLNSYPITFGQGTRLEIKR | ADCC activity, enhancement against U1-59 (human HER3 on cells [13]): 1.86 fold; IC50 of inhibition of ligand (NRG1)-induced AKT phosphorylation in MCF-7 cells (human HER3 on cells [14]): 0.0912 µg/mL; internalization activity, EC50, HPAF-II cells (flow cytometry) (human HER3 on cells [15]): 0.0294 µg/mL; internalization activity, EC50, MDA-MB-453 cells (flow cytometry) (human HER3 on cells [15]): 0.0229 µg/mL; internalization activity, EC50, NCI-358 cells (flow cytometry) (human HER3 on cells [15]): 0.067 µg/mL; internalization activity, EC50, WIDR cells (flow cytometry) (human HER3 on cells [15]): 0.0301 µg/mL; IC50 (read off the curve) (human HER3 on cells [16]): ~0.1 µg/mL; IC50 (read off the curve) [17]: ~0.4 µg/mL |
|  |  |  |  |  |  |  |  |  |  |  |  | 0.0054 | 0.0071 | 22B6D2 (anti-human HER3 chimeric antibody) (antibody, V domains shown, detected with anti-Rat IgG) VH: EVHLVESGGGVVQPGRSLRLSCATSGFTFRSYGMHWVRQAPGKGLEWVAVIWYDGSNKYYADSVKGRFTISRDISKNTLYLQMNSLTAEDTAVYYCARYYYDSNGYYDAFDIWGQGTMVTVSS VL: DIQLTQSPSFLSASVGDRVTITCRASQGISNYLAWYQQKPGKAPKLLIFAASTLQSGVPSRFSGSGSGAEFTLTISSLEPEDFATYYCQQLNSYPITFGQGTRLEIK |  |
| 0.0223 | 0.00713 | 0.0601 | 0.00666 | 0.0923 | 0.0989 | 29.1 | 0.0104 | 356000 | 74.8 | 0.0111 | 148000 |  |  | 47A3E3-hIgG (anti-human HER3 fully human antibody) (antibody, V domains shown, Human IgG1/kappa, expressed in CHO-S cells; also called 47A3E3-hIgG-Bio (biotin-labelled)) VH: EVQLQESGPGLVKPSQTLSLTCAISGDSVSSSQSTWNWIRQSPSRGLEWLGRTFYRSRWYNDYALSMKSRITINPDTSKNQFSLQLNPVTPEDTAVYYCARDTYYYGSGGFDYWGQGSRVTVSS VL: DIQMTQSPSTLSASVGDRVTITCRASQSLSRWLAWYQQKPEKAPKLLIYKASSLESGVPSRFSGSGSGTEFTLTISTLQPDDFATYYCQQYKNYYSFGQGTKLEIKR | binding result (rat HER3 protein [18]): no binding; IC50 (read off the curve) [19]: ~0.1 µg/mL; IC50 (read off the curve) [20]: ~0.5 µg/mL |
|  |  |  |  |  |  |  |  |  |  |  |  | 0.0096 | 0.0101 | 47A3E3 (anti-human HER3 chimeric antibody) (antibody, V domains shown) VH: EVQLQESGPGLVKPSQTLSLTCAISGDSVSSSQSTWNWIRQSPSRGLEWLGRTFYRSRWYNDYALSMKSRITINPDTSKNQFSLQLNPVTPEDTAVYYCARDTYYYGSGGFDYWGQGSRVTVSS VL: DIQMTQSPSTLSASVGDRVTITCRASQSLSRWLAWYQQKPEKAPKLLIYKASSLESGVPSRFSGSGSGTEFTLTISTLQPDDFATYYCQQYKNYYSFGQGTKLEIK |  |
